Data as given in patent publication US20150351390A1, “COMPOSITIONS AND METHODS FOR AUXIN-ANALOG CONJUGATION” (PIONEER HI-BRED INTERNATIONAL, INC., priority 2012, published 2015).

B1: VvGH3-5: GH3 protein, accession XP_002276241 (protein, listed as Vitis vinifera)
chain: MPEAPKNRGNGAGLGVEGGILDDKNIRALEFIEDVTMNAKEVQMQVLSEIITRNSNVEYLQRHGLNGRVDADTFKKIVPVVTYEDMLPDIERIANGDMSPILCSKPISEFLTSSGTSGGERKLMPTIEEELGRRSLLYSLLMPVMNQSVPGLDEGKGMYFLFVKSEAKTPGGLMARPVLTSYYKSSYFRDRPYDPYTNYTSPNETILCPDSYQSMYSQLLCGLCQNKEVLRVGAVFASGFIRAIRFLEKHWVLLCKDIRAGTLDSQINDPSVREAVKRILKPNPELADFIEAECRRESWEGIITRLWPNTKYIDVIVTGTMSQYIPTLDYYSNGLPLVCTMYASSECYFGLNLNPLCKPSEVSYTLIPTMAYFEFLPVNRKNGFTNVSESAPLNEKEHQELVDLVDVKLGQEYELVVTTYAGLYRYRVGDILCVAGFKNKAPQFKFICRKNVALSIDSDKTDEFELQNAVKNAADHLLQFDASVTEYTSYADTSTIPGHYVLYWEIGLSGATPIPPSVFEDCCLIMEESLNSVYRQGRASDKSIGPLEIRIVEGGTFDKLMDYALSQGASINQYKTPRCVKYAPIIELLNSRVVSNYFSPKCPKWVAGHKQWCT
B2: VvGH3-2: GH3 protein, accession XP_002283886 (protein, listed as Vitis vinifera)
chain: MAVDSGLSSPLGPPACEKDAKALQFIEEMTRNPDQVQEKILAEILSQNGETEYLQRFKLAGATDRDTFKSKVPVVTYEDLQPDIQRIANGDRSPILSSHPISEFLTSSGTSAGERKLMPTIHEEWDRRQKLYSLLMPVMNLYVPGLDKGKGLYFLFVKSETKTPSGLVARPVLTGYYRSEHFKKRPYDPYNVYTSPDEAILCVDSFQSMYAQMLCGLLMHKEVLRVGAVFASGLLRAIRFLQVHWQQLAHDISTGILNPKITDPSVREGLAGILKPSQELADFIIQECSGGNWERIITRIWPNTKYLDVIVTGAMAQYIPTLDYFSGGIPLACTMYASSECYFGLNLKPMSKPSEVSYTIMPNMGYFEFLPHDPSAPPLSRDSPPRLVDLADVEVGKEYELVITTYAGLCRYRVGDILQVTGFHNSAPQFQFIRRKNVLLSIDSDKTDEAELQKAVENASLLLREFNTSVVEYTSFADTKTIPGHYVIYWELLVKDPSNSPTDTVLKQCCLAMEESLNTVYRQGRVADNSIGPLEIRVVKSGTFEELMDYAISRGASINQYKVPRCVNFTPIMELLDSRVLSTYFSPAAPHWTPERRRTD
B3: RcGH3-6: GH3 protein, accession XP_002533739 (protein, listed as Ricinus communis)
chain: MPEAPKNSLISSDYNLSEKNRKTLQFIEDVTSNPDEVQKKVLEEILTRNARVEYLQKHGLNGYTDRESFKKIMPVIAYEDIQPHINRIANGDTSPILCSKPISEFLTSSGTSGGERKLMPTIEEELGRRSLLYSLLMPVMNQFVPGLEKGKGMYFLFIKSEAKTPGGLVARPVLTSYYKSSHFKDRPFDPYTNYTSPNETILCPDSYQSMYSQMLCGLCQRNDVLRVGAVFASGFIRAIRFLEKHWQLLCNDIRTGTVNPQITDLSVREAVMKILKPDPKLADFIAAECSQESWQGIITRLWPNTKYVDVIVTGTMSQYIPTLDYYSNGLPLVCTMYASSECYFGVNLNPLCKPSEVSYTLIPTMAYFEFLPVHRNNGVTNSISMPKSLNEKEQQELVDLVDVKLGQEYELVVTTYAGLYRYRVGDVLRVAGFKNKAPQFNFICRKNVVLSIDSDKTDEVELQNAVKNAVNHLVPFDATLAEYTSYADTTSIPGHYVLFWEITLNGSTPIPPSIFEDCCLTIEESLNSVYRQGRVSDKSIGPLEIKIVEPGTFDKLMDYAISLGASINQYKTPRCVKFAPIVELLNSRVVSSYFSPKCPKWVPGHKQWGNKN
B4: VvGH3-1: GH3 protein, accession XP_002271252 (protein, listed as Vitis vinifera)
chain: MAVDPILSSPLGPAASEKDAKALQFIEEMTRNADSVQERVLAEILSRNGETEYLKRFKLEGSTVRETFKSKIPVIKYEDLQPEIQRIANGDRSAILSAHPISEFLTSSGTSAGERKLMPTIQEELDRRQMLYSLLMPVMNLYVPGLDKGKGLYFLFVKSETRTPGGLLARPVLTSYYKSEHFKTRPYDPYNVYTSPNEAILCADSFQSMYTQMLCGIYERKQVLRLGAVFASGLLRAIRFLQLNWHQLTHDIRTGTLSPKITDPSVRNCVAGVLKPDPELADLVAGECSKDNWEGIITRIWPNTKYLDVIVTGAMAQYIPTLDYYSGGLPLACTMYASSECYFGLNLNPMSKPSEVSYTIMPNMAYFEFLPHEHSSIPLSRDSPPRLVDLAHVEVGKEYELVITTYAGLYRYRVGDILRVTGFHNSAPQFHFVRRKNVLLSIDSDKTDEAELQKAVDNASKLLREVNTSVVEYTSFADTKTIPGHYVIYWELLVKDSANSPSDELLGQCCLAMEESLNSVYRQGRVADNSIGPLEIRVVKSGTFEELMDYAISRGASINQYKVPRCVNFTPIMELLDSRVVSSHFSPALPHWTPARRR
B5: AIGH3-17: GH3 protein, accession XP_002890761 (protein, listed as Arabidopsis lyrata)
chain: MIPSYDPNDTEAGLKLLDDLTTNAETIQQQVLHQILSQNSGTQYLRAFLDGESDKNQQSFKNKVPVVNYDDIKPFIQRIADGESYDIVSAQPITELLTSSGTSAGKPKLMPSTAEELDRKTFFYSMLVPIMNKYVNGLDEGKGMYLLFIKPEIKTPSGLMARPVLTSYYKSQHFRNRPFNKYNVYTSPDQTILCQDSKQSMYCQLLCGLVQRSHVLRVGAVFASAFLRAVKFLEDHYKELCADIRTGTVTSWITNSSCRDSVLSILNGPNQELADEIESECAEKSWEGILRRIWPKAKYVEVIVTGSMAQYIPTLEFYSGGLPLVSTMYASSECYFGINLNPLCDPADVSYTLLPNMAYFEFLPVDDKSHEEIHFASHSNTDDDDDALKEDLIVDLVNVKVGQYYEIVITTFTGLYRYRVGDILKVTGFHNKAPQFRFVQRRNVVLSIDTDKTSEEDLLNAVTQAKLNHLQHPSSLLLMEYTSYADTSSIPGHYVLFWELKPRHSNDPPKLDDKTMDDCCSEVEDCLDYVYRRCRNRDKSIGPLEIRVVSLGTFDSLMDFCVSQGSSLNQYKTPRCVKSGGALEILDSRVIGRFFSKRVPQWEPLGLDS
B6: VvGH3-3: GH3 protein, accession XP_002283229 (protein, listed as Vitis vinifera)
chain: MPEAPKKSFKATGHDYCLAEKNKKALQFIEDVTTNADQVQKRVLAEILTRNAHVEYLHRHGLGGHTDRDTFKKLMPVITYEDLQPDITRIANGDTSLILCSNPISEFLTSSGTSGGERKLMPTIEEELERRSLLYSLLMPVMSQSVQGLEKGKGMYFLFIKSEAKTPGGLVARPVLTSYYKSSHFRERPYDPYTNYTSPNETILCPDSYQSMYSQMLCGLVQNKEVLRVGAVFASGFIRAIRFLEKHWTLLCRDIRTGTIDQQITDPSVREAVMRVLKPDPKLADFVEGECRKESWQGIITRLWPNTKYVDVIVTGTMSQYIPTLDYYSNDLPLVCTMYASSECYFGVNLNPLCKPSEVSYTLIPTMAYFEFLPVHRNNGTNSISVPKSLNDKEQQDLVDLVDVKLGQEYELVVTTYAGLYRYRVGDVLRVAGFKNKAPQFNFVCRKNVVLSIDSDKTDEVELQAAVKNAVNHLMPFDATLTEYTSYADTTTIPGHYVLYWELSLRGSTPIPPSVFEDCCLTVEESLNSVYRQGRVSDKSIGPLEMKIVESGTFDKLMDYAISLGASINQYKTPRCVKFAPIIELLNSRVVSNYFSPKCPKWIPGHKQWCNKN
B7: ThBAJ34606: GH3 protein, accession BAJ34606 (protein, listed as Thellungiella halophila)
chain: MPEAPKNESLEIFDLTLDEKNKRKLQLIEELTSNADQVQRRVLEEILTRNADVEYLRRHDLDGRTDRETFKNVMPVITYEDIQPEINRIANGDKSHILSIKPISEFLTSSGTSGGERKLMPTIEEELDRRSLLYSLLMPVMSQFVPGLDKGKGMYFLFIKSESKTPGGLPARPVLTSYYKSSHFKERPFDPYTNYTSPNETILCPDSYQSMYSQMLCGLCQHQEVLRVGAVFASGFIRAIKFLEKHWTELVCDIRTGVLSSLITDPSVREAVAKILKPNPKLADFVESECKKKSWQGIITRLWPNTKYVDVIVTGTMSQYIPTLDYYSNGLPLVCTMYASSECYFGVNLKPLCKPSEVSYTLIPTMAYFEFLPVHRNTGVTNSINLPKALTEKEQQELVDLVDVKLGQEYELVVTTYAGLCRYRVGDLLRVTGFKNKAPQFSFICRKNVVLSIDSDKTDEVELQNAVKNAVTHLVPFDASLSEYTSYADTSSIPGHYVLFWELCLDGNTPIPPSVFEDCCLAVEESLNTVYRQGRVSDKSIGPLEIKIVEPNTFDKLMDYAISLGASINQYKTPRCVKFAPIIELLNSRVVDSYFSPKCPKWVPGHRQWGSN

Assay: LC-MS assay of GH3 conjugation of IAA with Asp or Glu
Assay type: biochemical
Conditions: conjugation of IAA with Asp by recombinant GH3 protein; IAA-Asp product by LC-MS
Procedure, shortened: (§1)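 Amino acid conjugates of IAA, 2,4-D or dicamba measured by LC-MS against conjugate standards, with kinetic parameters fitted to Michaelis-Menten initial velocities. Reactions: 5 mM each of auxin, ATP and Asp or Glu with 44 to 164 μg/mL purified His-tagged GH3 (E. coli-expressed), pH 8.0 Tris, 5 mM MgCl2, 1 mM DTT, 30 °C for 3 h.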

| Molecule | kcat (hrs−1) IAA-Asp [h⁻¹] |
| --- | --- |
| B1 | 759.486 |
| B2 | 1011.181 |
| B3 | 1037.037 |
| B4 | 964.027 |
| B5 | 33.508 |
| B6 | 1006.325 |
| B7 | 610.082 |

Same assay, conditions: conjugation of IAA with Glu by recombinant GH3 protein; IAA-Glu product by LC-MS

| Molecule | kcat (hrs−1) IAA-Glu [h⁻¹] |
| --- | --- |
| B1 | 47.289 |
| B2 | 45.833 |
| B3 | 183.972 |
| B4 | 45.433 |
| B5 | 317.690 |
| B6 | 79.770 |
| B7 | 67.109 |

Assay: LC-MS assay of GH3 conjugation of 2,4-D with Asp or Glu
Assay type: biochemical
Conditions: conjugation of 2,4-D with Asp by recombinant GH3 protein; 2,4-D-Asp product by LC-MS; 5 mM 2,4-D substrate
Procedure, shortened: as §1

| Molecule | kcat (hrs−1) 2,4-D-Asp [h⁻¹] |
| --- | --- |
| B1 | 2.603 |
| B2 | 5.691 |
| B3 | 4.189 |
| B4 | 2.529 |
| B5 | 0.212 |
| B6 | 5.615 |
| B7 | 4.232 |

Same assay, conditions: conjugation of 2,4-D with Glu by recombinant GH3 protein; 2,4-D-Glu product by LC-MS; 5 mM 2,4-D substrate

| Molecule | kcat (hrs−1) 2,4-D-Glu [h⁻¹] |
| --- | --- |
| B1 | 0.974 |
| B2 | 1.113 |
| B3 | 2.525 |
| B4 | 0.635 |
| B5 | 0.455 |
| B6 | 1.602 |
| B7 | 1.750 |
